B1: humanized rat anti-EGFR antibody ICR62 with VH of SEQ ID NO: 8, and VL of SEQ ID NO: 10 (antibody, V domains shown)
VH: QVQLVQSGAEVKKPGSSVKVSCKASGFTFTDYKIHWVRQAPGQGLEWMGYFNPNSGYSTYAQKFQGRVTITADKSTSTAYMELSSLRSEDTAVYYCARLSPGGYYVMDAWGQGTTVTVSS
VL: DIQMTQSPSSLSASVGDRVTITCRASQGINNYLNWYQQKPGKAPKRLIYNTNNLQTGVPSRFSGSGSGTEFTLTISSLQPEDFATYYCLQHNSFPTFGQGTKLEIKR
notes: Parent monospecific 'wildtype' IgG; also called <EGFR>ICR62; <EGFR> ICR62
B2: scFab-XGFR2_2720 (bispecific antibody)
chain 1: not shown
chain 2: DIQMTQSPSSLSASVGDRVTITCRASQGINNYLNWYQQKPGKAPKRLIYNTNNLQTGVPSRFSGSGSGTEFTLTISSLQPEDFATYYCLQHNSFPTFGQGTKLEIKRTVAAPSVFIFPPSDEQLKSGTASVVCLLNNFYPREAKVQWKVDNALQSGNSQESVTEQDSKDSTYSLSSTLTLSKADYEKHKVYACEVTHQGLSSPVTKSFNRGEC

How the values were obtained:
EGFR-ECD [1] = target: T1, EGFR-ECD (human, UniProt P00533 25-645); assay: SPR (Biacore T100), antibody captured by anti-human IgG on CM5 chip, EGFR-ECD injected, 25 C
T1 construct: extracellular domain; Analyte in the Biacore assays; also called human epidermal growth factor receptor; HER-1
Protocol: A reference control flow cell was treated in the same way but with vehicle buffers only instead of the capturing antibody. Surfaces were blocked with an injection of 1 M ethanolamine/HCl pH 8.5. The bispecific antibodies were diluted in HBS-P and injected at a flow rate of 5 μl/min. […] The contact time (association phase) was 3 min, the dissociation time (washing with running buffer) 5 min for both molecules at a flowrate of 30 μl/min. All interactions were performed at 25° C. (standard temperature). […] Signals were detected at a rate of one signal per second. Samples were injected at increasing concentrations.

EGFR-ECD [2] = target: T1, EGFR-ECD; assay: SPR (Biacore T100), antibody captured by anti-human IgG on C1 chip, EGFR-ECD injected, 25 C
Protocol: Capturing anti-human IgG antibody was immobilized on the surface of a C1 biosensorchip using amine-coupling chemistry. […] A reference control flow cell was treated in the same way but with vehicle buffers only instead of the capturing antibody. Surfaces were blocked with an injection of 1 M ethanolamine/HCl pH 8.5. The bispecific antibodies were diluted in HBS-P and injected at a flow rate of 5 μl/min. The contact time (association phase) was 1 min for the antibodies at a concentration between 1 and 5 nM. EGFR-ECD was injected at increasing concentrations of 1.2, 3.7, 11.1, 33.3, 100 and 300 nM, IGF-1R at concentrations of 0.37, 1.11, 3.33, 10, 30 and 90 nM. The contact time (association phase) was 3 min, the dissociation time (washing with running buffer) 5 min for both molecules at a flowrate of 30 μl/min. All interactions were performed at 25° C. (standard temperature). The regeneration solutions of 0.85% phosphoric acid and 5 mM sodium hydroxide were injected each for 60 s at 5 μl/min flow to remove any non-covalently bound protein after each binding cycle. Signals were detected at a rate of one signal per second. Samples were injected at increasing concentrations.

IGF-1R = target: T2, IGF-1R (UniProt P08069 31-932, limits assumed); assay: SPR (Biacore T100), antibody captured by anti-human IgG on C1 chip, IGF-1R injected, 25 C
T2 construct: Analyte in the Biacore assays; also called IGF-IR; insulin-like growth factor I receptor

| Binder | Kd (EGFR-ECD [1]) | Kd (EGFR-ECD [2]) | Kd (IGF-1R) |
| --- | --- | --- | --- |
| B1 | 3 nM | 0.5 nM | – |
| B2 | – | 0.5 nM | 11 nM |

From patent publication US20120149879A1 (published 2012)
